Results taken from the supplement of paper PMC9170038.

System: MS2 coat protein
Test: apparent KD of MS2 coat protein; higher = weaker reporter binding
Conditions: Eterna round: R107
Outline: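 On-chip transcription from Illumina sequencing clusters produced the designed RNA switches. These were titrated with SNAP-549-labelled MS2 coat protein (twofold steps, 0.7 or 1.5 nM to 3 µM) in 100 mM Tris-HCl pH 7.5, 80 mM KCl, 4 mM MgCl2, with or without constant ligand. The apparent KD given is the per-design median of normalised cluster binding-curve fits.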

[1] = input ligand: theophylline 20 uM
[2] = input ligand: theophylline 2 mM
[3] = input ligand: tryptophan 2.4 mM

Sequence	apparent KD of MS2 coat protein (input ligand: arginine 13.2 mM) [nM]	apparent KD of MS2 coat protein [1] [nM]	apparent KD of MS2 coat protein [2] [nM]	apparent KD of MS2 coat protein (input ligand: none) [nM]	apparent KD of MS2 coat protein [3] [nM]
GGAUUACGAAAGUAGUCCAUCAAGUUCGAGCGAGGACCGGUACGGCCGCCACUCGAACAUGAGGAUCACCCAUGUAGCGAAAGCU [Tryptophan A 21]	116	304	371	–	–
GCACAUGAGGAUCACCCAUGUAUUACUGAAGGAGCGAGACAGAACUCAGGUAGGUCGCAGACUGCACAAUUGCGGACGACAUGGG [Exclusion Arginine A GF22]	14.6	41	31.2	31.5	34.3
AUCUUGUACCGUAAUACUUUACGUUGGGAUACCAGCAUGGACCCAUGCCCUUGGCAGCUUUACAUGAGGAUCACCCAUGUUGUAG [SSTheo A #28]	26.3	42.2	–	–	39.9
GGCUAUACUACGGCCGCCACUGAACAUGAGGAUCACCCAUGUAAUGUUCAGAUUUUUUUUUUUUACAGGACCGGGUAGAAUUGCC [Tryptophan B 3]	82.6	220	299	–	–
GUAGCGACGACGGCCGCCACUCACAGGUGAGGGUAGACCAACCUUCACAUGAGGAUCACCCAUGUGAGGACCGGGUUGUCGGUAC [#11 Exclusion Tryptophan B]	50.9	95.5	111	134	146
UUAAGAGGCUAUCCACUUUGAUUUUGUGAUACCAGAAUAAUUUUAUUCCCUUGGCAGCAUGACAUGAGGAUCACCCAUGUGUCUU [SSTheo A #3]	31.4	46.5	–	–	36.9
ACCUGCGUUUGUUUCUUUCUGACGCAGGUUCGAGGACCGGUACGGCCGCCACUCGGACAUGAGGAUCACCCAUGUUUGACAUGGG [#02 Exclusion Tryptophan A]	229	238	281	–	–
AUACAUGAGGAUCACCCAUGUCCUCGUGAUCGAGGACCGGUACGGCCGCCACUCGGUCCUCGCGAGGAGGAGUCAAAGACUCCAA [Omei Trp A SS A v4]	38.5	111	113	82.9	53.8
AAUAACAUGAGGAUCACCCAUGUAAAAGAUACCAGAUGCAUGAUGAUCCCUUGGCAGCUUAAAACGCGAUUGAUUACAAUCGCGA [Mat - Same State Theophlline A - Mod of Eli - D12]	41	77.9	–	–	27.5
AGCAACAAGUCGGCCGCCACUCUUUUUACAUGAGGAUCACCCAUGUUUAUAUCAUGGUCUUAAUAGAGGACCGGGACAGUUGCAU [JR_ExcTryptoB_Sub006]	28.6	53.7	46.9	–	–
UUAAUUAUAUAUUAUUUAAUAUUUACAGAAGGAGCGUGAUAAAACACAGGUAGGUCGCUGAAGGGAACAUGAGGAUCACCCAUGU [AstrosSSArgA#20]	28.6	41.6	60.1	28.9	38.9
UGUCAGCGAAAGUUGACAUGUCUUGCUGGUCGAGGACCGGUACGGCCGCCACUCGAUCUCUCGCACAUGAGGAUCACCCAUGUUG [SS Tryp A #23]	13.9	14.4	13.9	–	–
GUAGCGACGGCGGCCGCCACUCACAGGUGAGGGUAGACCAACCUUCACAUGAGGAUCACCCAUGUGAGGACCGGGCUGUCGCUAC [#13 Exclusion Tryptophan B]	36.3	117	122	–	–
UUCACAUGGUAUGAAUAUACAUACAAGAAACGAGGACCGGUACGGCCGCCACUCGUGCCGGAAACAUGAGGAUCACCCAUGUGUU [AK1.2 Exclusion TrypA mod IceBolt]	21.5	41.2	41.2	–	–
AAAGACAUGAGGAUCACCCAUGUGGGUGGGCGAGGACCGGUACGGCCGCCACUCGUGGGCGGGAAGGGAUAUUUAAUAAGGAAGA [same state--tryptophan A 1st shot]	50	155	272	102	131
AAGGUGAUCCGUGAUACCAGCUCAACAUGAGGAUCACCCAUGUAAGCCUGGAAACAGGCGAGCCCUUGGCAGCACGGUAAUAAUA [(M)'-(Theo1)-(Ms2)-(Theo2)-(M'')]	12.6	14.5	–	–	12.6
UCAGUGCAGGGAAGGAGCGGGUACAUGAGGAUCACCCAUGUGCAAGUGGUGAGCGUCCGUGCCCAGGUAGGUCGCCCAGCCUGGU [Atarteedon]	69.2	235	198	121	108
CAUGCCAGGGCGGCCGCCACUGUGGCUACGGUACAUGAGGAUCACCCAUGUUUGUGGUUGAUCUACAGGACCGGGCCCUAGCACG [Anananenes]	30.6	597	528	–	–
GCAUCCUAGUCGGCCGCCACUGCAGUAGCACCUGCUACAUGGAAACAUGAGGAUCACCCAUGUAGCAGGACCGGGACUAGGAUGC [(Trp1)-(TM)''-(TM)'-(Ms2)-(Trp2)_Design8]	44.3	733	909	276	236

Sequence	apparent KD of MS2 coat protein (input ligand: arginine 13.2 mM) [nM]	apparent KD of MS2 coat protein [1] [nM]	apparent KD of MS2 coat protein [2] [nM]	apparent KD of MS2 coat protein (input ligand: none) [nM]	apparent KD of MS2 coat protein [3] [nM]
GAGGAAACUCACAUGAGGAUCACCCAUGUACGAGGACCGGUACGGCCGCCACUCGAAACCAUGGGCGGUAGUACGUGGAAGCUUG [Design 2 MOD 2]	21.1	31.3	23.8	–	–
GGUUACUCUACGGCCGCCACUGGGCAUGUAAAUAACAUGAGGAUCACCCAUGUGGAUUAAUAUUACAGGACCGGGUAGUGUAACC [Tryptophan B 23]	126	253	384	279	25.1
UAUACAUGAGGAUCACCCAUGUGCCAUGAUACCAGACAUGAAAAUGUCCCUUGGCAGCAUGGUGAUUGUAUAGCGGGAAACCCGA [Utechov]	81.3	261	–	–	138
UCGCUCUGGGUGAGAUCCGGAGAUGUGGAAGGAGCGCUGGAAACAGCAGGUAGGUCGCCAACGGACAUGAGGAUCACCCAUGUAC [Same State - Arginine A (Freestyle 19)]	41.4	75.3	31.9	44.4	81.5
UGACAUGAGGAUCACCCAUGUAUAACUGAAGGAGCGUCCAUAAGGACAGGUAGGUCGCGGAAUGAACAGAGUGCACGACAUGUUU [Arg A SS t1]	12.8	17.7	14.3	13.3	14.2
CCAUAGGGUAAAUACGUAAUCAUAUCUGAAGGAGCGUGGAUAUACACAGGUAGGUCGCAGAAUCACAUGAGGAUCACCCAUGUCU [Same State Arginine A GF12]	28.8	39.8	47.5	41.2	42.7
GCAUCCUAGUCGGCCGCCACUGCAACAUGAGGAUCACCCAUGUCUGUAUGUGAUCCAUGCAGUAGCAGGACCGGGACUAGGAUGC [(T1)-(M1)-(M2)-(T)''-(M)'-(T)'-(T2)_Design3_2/18/17]	237	467	833	–	–
GGGCCCGGGCGCGAGCCCGGGCCCAUUGAUACCAGUGAAGAAGAGCGCCCUUGGCAGCGAAUCCUAACAUGAGGAUCACCCAUGU [5.P]	63.2	74.3	77.3	43.6	38.8
UGCGAUUGCUCAGAUACCAGACAUGAGGAUCACCCAUGUACCAAGGUAAAGAAAUAACGUGUCCCUUGGCAGCUGAGCAAUCGCU [MAT - Exclusion Theophlline B - Mod of Eli - D9]	11.9	14	–	–	11.3
AAUAUUUGCCACAUGAGGAUCACCCAUGUGCGAGGACCGGUACGGCCGCCACUCGGUCGGUGGUUAAUGAAGAUAAACAAUAAUG [XTryp A #11]	7.7	15.7	11.5	12	11.2
UCGUUGAAGUCGGCCGCCACUGAACUCAUGUUCAACAUGAGGAUCACCCAUGUACCUUAUUUUAACAGGACCGGGACUUUGACGA [JR_ExcTryptoB_Sub002]	113	229	164	–	–
AUACCACCUUCGGCCGCCACUAUGUAUGGGUUCCCAACGUUGAAGGACAUGAGGAUCACCCAUGUUAGGACCGGGAAAAGUGCCU [theeternabot_exclusion_MS2_Trp_B_17]	45.3	106	103	–	–
UUAAUCUAUGAAGAAAACUUUAUAGCAGAAGGAGCGUGAUAAAACACAGGUAGGUCGCUGAAGGGAACAUGAGGAUCACCCAUGU [AstrosSSArgA#19]	23.7	36.7	31.1	22.7	26.5
UACCGGUGACUCGAUACCAGUCCUCUAAAAUACAUGAGGAUCACCCAUGUAACCUUCCCAGACCCUUGGCAGCGACACAUGGAUA [theeternabot_sameState_MS2_Theo_B_49]	97.7	176	–	–	147
CAUUGAGCAGCUGAUACCAGUGCCUGAACUUACAUGAGGAUCACCCAUGUAUGCCCAAAACACCCUUGGCAGCAGAGGAAGAUCG [theeternabot_sameState_MS2_Theo_B_38]	15.2	18.9	–	–	14.5
UAUCCACAUGAGGAUCACCCAUGUUAGGAAGGAGCGGUGAAUGCACCAGGUAGGUCGCCUAGCUGAGGACUGUCGGUGGAUUCGU [Exclusion - Arginine A (Freestyle 19)]	33	47	53	39.4	40.3
UAGGACAUGAGGAUCACCCAUGUUGUACGGCGAGGACCGGUACGGCCGCCACUCGAGGCGUAAGUAGUAAAGAAUCUGAUUCAAU [theeternabot_sameState_MS2_Trp_A_4]	13.7	40.9	20.7	–	–
GUAUUACGGACGGCCGCCACUGUGGGACAUGAGGAUCACCCAUGUGGCGCUACUUACAAGUGCGACAGGACCGGGUCAUGGUUUG [theeternabot_sameState_MS2_Trp_B_1]	152	732	783	–	–
